Assay results reported in patent US20250326826A1 (CENTRO DE INGENIER A GEN TICA Y BIOTECNOLOG A, published 2025).
Read-outs that look alike come from different tables or passages of the source.

T1: GST-hVEGF121 (human, UniProt P15692-9 27-147)
T1 construct: plate coating of the VEGF ELISAs; also called human VEGF; not shown: glutathione S-transferase (GST) fusion partner
T1 sequence (looked up): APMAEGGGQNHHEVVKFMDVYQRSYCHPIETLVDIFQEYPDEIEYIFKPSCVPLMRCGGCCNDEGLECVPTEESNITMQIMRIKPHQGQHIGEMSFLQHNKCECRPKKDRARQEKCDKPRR


Columns and labels:
[1] = target: T2, Recombinant human bFGF (human, UniProt P09038 143-288, limits assumed); assay: ELISA, coated human bFGF
T2 construct: Bought (Sigma); also called hFGF-2; human basic fibroblast growth factor
T2 sequence (P09038 143-288 limits assumed): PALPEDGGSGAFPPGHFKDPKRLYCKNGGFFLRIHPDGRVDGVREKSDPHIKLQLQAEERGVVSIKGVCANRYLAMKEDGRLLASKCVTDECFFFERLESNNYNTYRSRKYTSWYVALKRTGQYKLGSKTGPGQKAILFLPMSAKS
Protocol: (§1) The 96-well plates were coated with 100 μL/well of a solution of GST-hVEGF121, GST-mVEGF120, or GST at a concentration of 20 μg/mL, or with a solution of VEGFKDR- at a concentration of 10 μg/mL, or hFGF-2 or mFGF-2 at a concentration of 5 μg/mL in 1×PBS for 16 hours at 4° C. After the plates were blocked with PBS-5% skim milk for one hour, 1:2 serial dilutions of the purified VHHs were added, starting at 2 μg/mL in PBS-0.5% skim milk. The plates were incubated for 1 hour at 37° C. and after several washes, the monoclonal antibody 9E10, specific for c-myc, was added. After one hour of incubation at 25° C. the plates were washed thoroughly. The binding of the fragment to the antigen in the solid phase was detected by the peroxidase activity using 100 μL/well of TMB. The reaction was stopped with 50 μL/well of stop solution, and absorbance values at 450 nm were determined in a microtiter plate reader.
SEQ ID NO: 18 and SEQ ID NO: 19, and the bivalent Nb-VV6 and Nb-FF2, with sequences identified as SEQ ID NO: 20 and SEQ ID NO: 21, were expressed and purified as described in the Example 1. In all cases, the purity and identity of the proteins were verified by SDS-PAGE 12% and anti-polyhistidine Western Blot. […] The experimental mass of the polypeptides and the arrangement of the disulfide bridges were checked by ESI/MS-MS. The experimental and theoretical mass, for each polypeptide coincided, with errors less than 0.0015% in all cases, and the formation of intramolecular bridges between C22-C101 and C168-C247 was verified. […] The biological activity of the polypeptides was evaluated by ELISA for recognition of the VEGF and bFGF antigens, and by their ability to displace VEGF and bFGF binding to their respective VEGFR2 and FGFR1 receptors. […] Similarly, it was shown that the ability to displace the binding of antigens by their receptors was not affected.

[2] = target: T2, Recombinant human bFGF; assay: competition ELISA, coated bFGF, competitor Fc-FGFR1
Protocol: (§2) The ability of VHHs to hinder receptors for binding to their ligand was assessed by ELISA, for which 96-well plates (NUNC, USA) were coated with GST-hVEGF or bFGF and blocked as described in the previous section. Serial 1:2 dilutions of the purified VHHs, from […] to […], were added and the plates and incubated for 1 h at 37° C. In this step, some wells were left where only PBS-milk was added. […] After 45 min incubation at 37° C., plates were washed with PBS-0.05% Tween. To detect receptor binding, HRP-conjugated anti-human IgG antibody was added, diluted 1:5000 in PBS-0.5% milk. After incubation for 1 h at 37° C., the plates were washed with PBS-Tween, and TMB was added. The reaction was stopped after 10 min. Wells incubated with the receptors without the addition of the antibody fragments were taken as reference for maximum binding in the absence of competitor. In this assay, in the case of inhibition of the VEGF/VEGFR axis, the CIGB166a antibody fragment was used as a positive control, and an anti-FGF polyclonal antibody was used for the FGF/FGFR axis. The percentage of inhibition of receptor binding to its ligand was calculated as follows: […]

[3] = target: T1, GST-hVEGF121; assay: competition ELISA, coated GST-hVEGF, competitor Fc-VEGFR2
Protocol: as §2
The biological effect of VEGF is a consequence of its binding to two fundamental receptors (VEGFR1 and VEGFR2), so for a polypeptide that binds to VEGF to be effective in the therapeutic setting, it must block these interactions (Shibuya, Cell Structure and Function, 2001: 26: 25-35). The ability of Nb-V1 to compete with receptors 1 and 2 for binding to its ligand (VEGF) was assessed by solid phase ligand competition ELISA, as described above.

[4] = target: T1, GST-hVEGF121; assay: ELISA, coated GST-hVEGF
Protocol: as §1

[5] = target: bFGF (soluble stimulus added to cell cultures); assay: cell-based or functional assay
[6] = target: VEGF (soluble stimulus added to cell cultures); assay: cell-based or functional assay
VEGF (soluble stimulus added to cell cultures), sequence (P15692 whole entry): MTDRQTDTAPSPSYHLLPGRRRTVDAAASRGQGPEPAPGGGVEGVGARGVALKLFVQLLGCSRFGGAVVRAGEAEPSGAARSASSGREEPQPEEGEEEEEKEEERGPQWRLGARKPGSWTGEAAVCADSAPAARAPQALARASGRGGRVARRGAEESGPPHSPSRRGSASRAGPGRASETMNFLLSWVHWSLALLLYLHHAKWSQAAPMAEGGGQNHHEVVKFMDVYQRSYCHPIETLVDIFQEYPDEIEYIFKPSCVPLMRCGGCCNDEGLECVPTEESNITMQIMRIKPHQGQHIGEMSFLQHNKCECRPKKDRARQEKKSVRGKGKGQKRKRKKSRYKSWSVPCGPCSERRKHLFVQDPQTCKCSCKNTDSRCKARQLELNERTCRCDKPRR

[7] = target: T2, Recombinant human bFGF; assay: ELISA, coated human bFGF; remark: listed apart in the source
[8] = target: T1, GST-hVEGF121; assay: ELISA, coated GST-hVEGF; remark: listed apart in the source
[9] = target: T1, GST-hVEGF121; assay: competition ELISA, coated GST-hVEGF, competitor Fc-VEGFR2; remark: listed apart in the source
[10] = target: T2, Recombinant human bFGF; assay: competition ELISA, coated bFGF, competitor Fc-FGFR1; remark: listed apart in the source
[11] = target: Human VEGF (dendritic cell assay) (human, UniProt P15692-4 27-191, limits assumed); assay: cell-based or functional assay
[12] = target: T1, GST-hVEGF121; assay: ELISA, coated GST-hVEGF; remark: listed apart in the source
Protocol: as §1
SEQ ID NO: 18 and SEQ ID NO: 19, and the bivalent Nb-VV6 and Nb-FF2, with sequences identified as SEQ ID NO: 20 and SEQ ID NO: 21, were expressed and purified as described in the Example 1. […] The biological activity of the polypeptides was evaluated by ELISA for recognition of the VEGF and bFGF antigens, and by their ability to displace VEGF and bFGF binding to their respective VEGFR2 and FGFR1 receptors. […]

[13] = target: VEGF (soluble stimulus added to cell cultures); assay: cell-based or functional assay; remark: listed apart in the source

Row | Binder | EC50 [1] | IC50 [2] | IC50 [3] | EC50 [4] | IC50, proliferation of HDMEC cells +bFGF (10 ng/ml) [5] | IC50, proliferation of HDMEC cells +VEGF (5 ng/ml) [6] | EC50 [7] | EC50 [8] | IC50 [9] | IC50 [10] | CD86 (MFI) on dendritic cells +VEGF +LPS, VHH 1 µg/mL [11] | CD86 (MFI) on dendritic cells +VEGF +LPS, VHH 5 µg/mL [11] | CD86 (MFI) on dendritic cells +VEGF +LPS, VHH 10 µg/mL [11] | MHCII (MFI) on dendritic cells +VEGF +LPS, VHH 1 µg/mL [11] | MHCII (MFI) on dendritic cells +VEGF +LPS, VHH 5 µg/mL [11] | MHCII (MFI) on dendritic cells +VEGF +LPS, VHH 10 µg/mL [11] | fold decrease of EC50 against Nb-V1 [12] | PD1 expression (%) in CD8+ cells treated with VEGF, VHH 1 µg/mL [13] | PD1 expression (%) in CD8+ cells treated with VEGF, VHH 5 µg/mL [13] | PD1 expression (%) in CD8+ cells treated with VEGF, VHH 10 µg/mL [13]
1 | Nb-FV1\cmycH6 (bispecific antibody, Nb-FV1 without c-myc tracer peptide and histidine tag) QVQLVESGGGLVQPGGSLRLSCAASGTEDGRLLTLGGSWFRQAPGQGLEAVAAIGAGDRGGATYYADSVKGRFTISRDNSKNTLYLQMNSLRAEDTAVYYCTALYERQPQLAATKVARKWGQGTLVTVSSAHHSEDPSSKAPKAPAQVQLVESGGGLVQPGGSLRLSCAASGNSAEDRLYNSYTWFRQAPGQGLEAVAAISSHFSAGLTYYADSVKGRFTISRDNSKNTLYLQMNSLRAEDTAVYYCEITSHASHNDAWSTPRTVWGQGTLVTVSS | – | – | – | – | – | – | 0.0118 µM | 0.00456 µM | 0.0286 µM | 0.132 µM | – | – | – | – | – | – | – | – | – | –
2 | Nb-FV1 (bispecific antibody, Bispecific tandem VHH (bFGF and VEGF); with c-myc and histidine tag) QVQLVESGGGLVQPGGSLRLSCAASGTEDGRLLTLGGSWFRQAPGQGLEAVAAIGAGDRGGATYYADSVKGRFTISRDNSKNTLYLQMNSLRAEDTAVYYCTALYERQPQLAATKVARKWGQGTLVTVSSAHHSEDPSSKAPKAPAQVQLVESGGGLVQPGGSLRLSCAASGNSAEDRLYNSYTWFRQAPGQGLEAVAAISSHFSAGLTYYADSVKGRFTISRDNSKNTLYLQMNSLRAEDTAVYYCEITSHASHNDAWSTPRTVWGQGTLVTVSSAAAGSEQKLISEEDLNSHHHHHH | 0.0115 µM | 0.131 µM | 0.0283 µM | 0.00459 µM | 0.122 µM | 0.129 µM | – | – | – | – | 2030 MFI | 3200 MFI | 17500 MFI | 4980 MFI | 6000 MFI | 17500 MFI | – | 63% | 55% | 40%

Next, values leading:

Row | EC50 [1] | IC50 [2] | IC50 [3] | EC50 [4] | IC50, proliferation of HDMEC cells +bFGF (10 ng/ml) [5] | IC50, proliferation of HDMEC cells +VEGF (5 ng/ml) [6] | EC50 [7] | EC50 [8] | IC50 [9] | IC50 [10] | CD86 (MFI) on dendritic cells +VEGF +LPS, VHH 1 µg/mL [11] | CD86 (MFI) on dendritic cells +VEGF +LPS, VHH 5 µg/mL [11] | CD86 (MFI) on dendritic cells +VEGF +LPS, VHH 10 µg/mL [11] | MHCII (MFI) on dendritic cells +VEGF +LPS, VHH 1 µg/mL [11] | MHCII (MFI) on dendritic cells +VEGF +LPS, VHH 5 µg/mL [11] | MHCII (MFI) on dendritic cells +VEGF +LPS, VHH 10 µg/mL [11] | fold decrease of EC50 against Nb-V1 [12] | PD1 expression (%) in CD8+ cells treated with VEGF, VHH 1 µg/mL [13] | PD1 expression (%) in CD8+ cells treated with VEGF, VHH 5 µg/mL [13] | PD1 expression (%) in CD8+ cells treated with VEGF, VHH 10 µg/mL [13] | Binder
3 | 0.0113 µM | 0.136 µM | 0.0285 µM | 0.00449 µM | 0.12 µM | 0.132 µM | – | – | – | – | – | – | – | – | – | – | – | – | – | – | Nb-VF3 (bispecific antibody, Bispecific tandem VHH (VEGF and bFGF); with c-myc and histidine tag) QVQLVESGGGLVQPGGSLRLSCAASGNSAEDRLYNSYTWFRQAPGQGLEAVAAISSHFSAGLTYYADSVKGRFTISRDNSKNTLYLQMNSLRAEDTAVYYCEITSHASHNDAWSTPRTVWGQGTLVTVSSAHHSEDPSSKAPKAPAQVQLVESGGGLVQPGGSLRLSCAASGTEDGRLLTLGGSWFRQAPGQGLEAVAAIGAGDRGGATYYADSVKGRFTISRDNSKNTLYLQMNSLRAEDTAVYYCTALYERQPQLAATKVARKWGQGTLVTVSSAAAGSEQKLISEEDLNSHHHHHH
4 | – | – | 0.0056 µM | 0.00189 µM | > 6 µM | 0.03 µM | – | – | – | – | 4200 MFI | 6520 MFI | 18000 MFI | 5110 MFI | 11200 MFI | 18700 MFI | 2 fold | 52% | 41% | 36% | Nb-VV6 (VHH, Bivalent monospecific tandem VHH for VEGF, hinge spacer with cysteines replaced by alanines; with c-myc and histidine tag) QVQLVESGGGLVQPGGSLRLSCAASGNSAEDRLYNSYTWFRQAPGQGLEAVAAISSHFSAGLTYYADSVKGRFTISRDNSKNTLYLQMNSLRAEDTAVYYCEITSHASHNDAWSTPRTVWGQGTLVTVSSAHHSEDPSSKAPKAPAQVQLVESGGGLVQPGGSLRLSCAASGNSAQDRLYNSYTWFRQAPGQGLEAVAAISSHFSAGLTYYADSVKGRFTISRDNSKNTLYLQMNSLRAEDTAVYYCEITSHASHNDAWSTPRTVWGQGTLVTVSSAAAGSEQKLISEEDLNSHHHHHH
